Data published in publication PMC11858715 (Molecules, 2025).

What was measured:
Assay in all cases: other fluorescence titration
Conditions in all cases: both partners purified
[1] = molecular target: T1, sense peptide S2 (YIYRNYPDF), ammodytoxin A segment from position 115 to 124 (Vipera ammodytes)
T1 peptide: YIYRNYPDF

[2] = molecular target: T1, sense peptide S2 (YIYRNYPDF), …
[3] = molecular target: T2, sense peptide S1 ([…]), ammodytoxin A segment from position 6 to 11 (Vipera ammodytes)
T2 construct: source: synthetic peptide, bought: GenScript Biotech B.V

| Binder | Kd [1] [µM] | stoichiometry N [2] | Kd [3] [µM] |
| --- | --- | --- | --- |
| INISIVGVK (designed binder) [antisense peptide S2A1 (INISIVGVK)] | 1.1 | 1 |  |
| VNISVIGIK (designed binder) [antisense peptide S2A2 (VNISVIGIK)] | 8.9 | 1 |  |
| SHHYEP (designed binder, source: synthetic peptide, bought: GenScript Biotech B.V) [antisense peptide S1A1 (SHHYEP)] |  |  | 4.9 |
| SHHYSP (designed binder) [antisense peptide S1A2 (SHHYSP)] |  |  | 1.4 |
